Starred links: 1 amine or outer side, 2 acyl side, 3 side chain; linkers in the order of their positions; H or OH if unused. Positions of bridges follow the written chain, without caps; N, C: chain ends. Non-standard residues stand in square brackets, D forms with d. Primed or numbered codes have the meaning given here. PyrS2″ = (S)-3-amino-1-((pent-4-en-1-yloxy)carbonyl)pyrrolidine-3-carboxylic acid (stapling residue), C=CCCCOC(=O)N1CC[C@@](N[*:1])(C(=O)[*:2])C1; RdN″ = (R)-4-(((allyloxy)carbonyl)(methyl)amino)-2-amino-2-methylbutanoic acid (stapling residue), C=CCOC(=O)N(C)CC[C@@](C)(N[*:1])C(=O)[*:2]; B5(16) = 2-amino-2-(pent-4-en-1-yl)hept-6-enoic acid = 2,2-bis(4-pentenyl)glycine (stitching residue), C=CCCCC(CCCC=C)(N[*:1])C(=O)[*:2]; B5(4) = 2,2-bis(4-pentenyl)glycine = 2-amino-2-(pent-4-en-1-yl)hept-6-enoic acid (stitching residue), C=CCCCC(CCCC=C)(N[*:1])C(=O)[*:2]; B5(5) = 2,2-bis(4-pentenyl)glycine, 2-amino-2-(pent-4-en-1-yl)hept-6-enoic acid (stitching residue), C=CCCCC(CCCC=C)(N[*:1])C(=O)[*:2]; TfeGA = (S)-2-amino-3-((carboxymethyl)(2,2,2-trifluoroethyl)amino)propanoic acid, O=C([C@H](CN(CC(=O)[*:3])CC(F)(F)F)N[*:1])[*:2]; PyrS2 = (S)-3-amino-1-((pent-4-en-1-yloxy)carbonyl)pyrrolidine-3-carboxylic acid, C=CCCCOC(=O)N1CC[C@@](N[*:1])(C(=O)[*:2])C1; B5(3) = 2,2-bis(4-pentenyl)glycine (stitching residue), C=CCCCC(CCCC=C)(N[*:1])C(=O)[*:2]; Qui = (S)-2-amino-3-(quinolin-2-yl)propanoic acid, O=C([C@H](Cc1ccc2ccccc2n1)N[*:1])[*:2]; Phe(4-COOH) = N[C@@H](Cc1ccc(C(=O)O)cc1)C(=O)O; Trp(7-F) = N[C@@H](Cc1c[nH]c2c(F)cccc12)C(=O)O; S7 = C[C@@](CCCCCC=[*:3])(N[*:1])C(=O)[*:2]; Bta = N[C@@H](Cc1csc2ccccc12)C(=O)O; αAllylPro = C=CC[C@@]1(C(=O)O)CCCN1; tBuAla = CC(C)(C)C[C@H](N)C(=O)O; 3Thi = N[C@@H](Cc1ccsc1)C(=O)O; S8 = C=CCCCCCC[C@](C)(N)C(=O)O; PyrS2(4) = not defined here

Assay [1] concerns the target T1, full-length beta-Catenin (Uniprot ID P35222) (Homo sapiens (Human), UniProt P35222 2-781).
T1 construct: the AlphaScreen assay uses a Histidine (Nickel Chelate) detection kit, so a His tag is likely there; also called B-Catenin; bCat
T1 sequence: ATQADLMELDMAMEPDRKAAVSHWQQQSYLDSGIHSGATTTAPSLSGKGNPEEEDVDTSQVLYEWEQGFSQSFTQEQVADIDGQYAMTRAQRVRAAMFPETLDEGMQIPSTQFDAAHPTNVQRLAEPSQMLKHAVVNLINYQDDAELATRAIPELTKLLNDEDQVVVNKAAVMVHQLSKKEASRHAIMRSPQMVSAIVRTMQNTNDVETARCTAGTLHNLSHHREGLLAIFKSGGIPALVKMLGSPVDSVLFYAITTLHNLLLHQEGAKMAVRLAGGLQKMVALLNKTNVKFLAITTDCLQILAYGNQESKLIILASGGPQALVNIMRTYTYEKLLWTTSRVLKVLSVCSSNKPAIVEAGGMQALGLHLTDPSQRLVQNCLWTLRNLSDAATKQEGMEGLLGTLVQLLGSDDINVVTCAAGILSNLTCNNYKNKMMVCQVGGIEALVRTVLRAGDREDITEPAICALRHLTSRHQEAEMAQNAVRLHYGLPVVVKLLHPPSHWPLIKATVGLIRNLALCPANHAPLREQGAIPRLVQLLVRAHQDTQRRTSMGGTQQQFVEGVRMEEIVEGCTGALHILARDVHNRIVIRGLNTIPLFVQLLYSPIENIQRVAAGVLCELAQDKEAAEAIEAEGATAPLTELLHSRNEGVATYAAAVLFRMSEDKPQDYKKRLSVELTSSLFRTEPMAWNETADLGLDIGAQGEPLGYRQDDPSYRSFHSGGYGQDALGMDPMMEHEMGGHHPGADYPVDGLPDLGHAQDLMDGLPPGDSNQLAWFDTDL
As to the kind of experiment: fluorescence polarization competition; full-length beta-catenin with 5FAM-TCF4(10-53) probe as competitor. As to the method:
The plate was incubated protected from light for 60 minutes at 20° C. prior to read. Reads were performed on a CLARIOstar plate reader (BMG Labtech) in duplicate, and data were fitted to a 1:1 binding model with hill slope using an in-house script. All provided concentrations are final concentrations.
A general note: Polarisation of emitted light reports the rotation of a fluorescent probe.

Assay [2] concerns the target T1, full-length beta-Catenin (Uniprot ID …). The experiment in a line: AlphaScreen competition; full-length beta-catenin with biotin-TCF4(10-53) probe as competitor. Here is the method:
Equal volume of the titrated peptide was added to the plate and incubated for 15 minutes at 20° C. Then 4 uL of donor and 4 uL acceptor beads at 10 ug/mL were added to the plate, for a 16 uL reaction pool and protected from light for 60 minutes at 20° C. prior to read. Reads were performed on a CLARIOstar plate reader (BMG Labtech) in duplicate, and data were fitted to a 1:1 binding model with hill slope using an in-house script. All provided concentrations are final concentrations.

Assay [3] deals with T2, B-cat-Halo (UniProt P35222 1-781).
T2 sequence (looked up): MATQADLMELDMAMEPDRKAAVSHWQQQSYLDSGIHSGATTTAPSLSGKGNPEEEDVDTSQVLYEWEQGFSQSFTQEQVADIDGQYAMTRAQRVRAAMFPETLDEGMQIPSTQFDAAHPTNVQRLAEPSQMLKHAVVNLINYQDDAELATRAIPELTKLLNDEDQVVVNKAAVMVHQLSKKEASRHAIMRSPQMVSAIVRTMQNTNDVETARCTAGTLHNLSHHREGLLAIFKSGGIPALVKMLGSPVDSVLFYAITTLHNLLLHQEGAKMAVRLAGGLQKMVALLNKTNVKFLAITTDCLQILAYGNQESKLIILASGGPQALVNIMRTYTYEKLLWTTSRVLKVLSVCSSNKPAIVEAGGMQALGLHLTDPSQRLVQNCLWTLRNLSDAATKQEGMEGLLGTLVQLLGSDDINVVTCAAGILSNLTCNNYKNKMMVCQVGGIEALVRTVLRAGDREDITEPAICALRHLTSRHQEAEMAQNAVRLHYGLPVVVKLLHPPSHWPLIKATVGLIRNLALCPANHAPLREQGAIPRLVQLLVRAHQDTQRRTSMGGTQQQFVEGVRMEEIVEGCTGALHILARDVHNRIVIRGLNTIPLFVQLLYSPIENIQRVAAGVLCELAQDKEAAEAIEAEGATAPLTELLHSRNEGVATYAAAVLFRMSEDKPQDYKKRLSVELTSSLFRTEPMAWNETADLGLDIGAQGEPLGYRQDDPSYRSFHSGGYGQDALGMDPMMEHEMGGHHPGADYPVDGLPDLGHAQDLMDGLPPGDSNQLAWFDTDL
The experiment in a line: cell-based or functional assay.

B1: I-148 (peptide)
peptide: Ac-ADI[RdN″]DEAAFQ[S7]FW-NH2
modifications: staple 4-11
notes: stapled peptide composition
Turning to B1, the figures for the EC50 in assay [1] and in assay [2] were 2770 nM and 398 nM, respectively.

B2: I-174 (peptide)
peptide: Ac-[αAllylPro]DI[B5(5)]DDAAFQ[S8]FWH-NH2
modifications: staple 1-4, 4-11
notes: stapled peptide
In the case of B2, the EC50 in assay [1] is 1760 nM; in assay [2] it was 116 nM.

B3: I-172 (peptide)
peptide: XDAXDXAAFVXFWQ
modifications: not fully specified; as printed: Ac-PL3-Asp-Ala-B5-Asp-EtGA-Ala-Ala-Phe-Val-S8-Phe-Trp-Gln-NH2; N-terminal acetyl, C-terminal amide; PL3(1), B5(4), EtGA(6), S8(11); staples PL3-B5 and B5-S8 by olefin metathesis
notes: stapled peptide
As to B3, the 50% effective concentration (EC50) in assay [1] came out at 5000 nM. This counts as single-digit micromolar.

B4: I-842 (peptide)
peptide: Ac-[αAllylPro]D[tBuAla][B5(3)]DYAAFN[PyrS2″][3Thi][Bta]Q-NH2
modifications: staple 1-4, 4-11
B4: the “NanoBRET Abs IC50” value in assay [3] came to 47900 nM.

B5: I-847 (peptide)
peptide: Ac-[αAllylPro]D[tBuAla][B5(3)]DLAAFN[PyrS2(4)][3Thi][Bta]H-NH2
modifications: staple 1-4, 4-11; reading uncertain
On to B5, for which the “NanoBRET Abs IC50” value in assay [3] is more than 20000 nM.

B6: I-851 (peptide)
peptide: Ac-[αAllylPro]D[tBuAla][B5(3)]D[Phe(4-COOH)]AAFL[PyrS2][3Thi][Bta]Q-NH2
modifications: staple 1-4, 4-11
For the molecule B6, in assay [3], the “NanoBRET Abs IC50” value was determined as 7600 nM.

B7: I-155 (peptide)
peptide: ADIXDEAAFAXFWA
modifications: not fully specified; as printed: Ac-Ala-Asp-Ile-RdN-Asp-Glu-Ala-Ala-Phe-Ala-S7-Phe-Trp-Ala-NH2; N-terminal acetyl, C-terminal amide; RdN(4), S7(11); staple RdN-S7 by olefin metathesis
notes: stapled peptide
As to B7, the EC50 in assay [1] was 5000 nM; in assay [2], 734 nM.

B8: I-166 (peptide)
peptide: Ac-[αAllylPro]DA[B5(16)]DEAAFV[S8]F[Trp(7-F)]Q-NH2
modifications: staple 1-4, 4-11
notes: stapled peptide composition
In the case of B8, the EC50 in assay [1] came to 2160 nM; in assay [2] it was 86.5 nM.

B9: I-837 (peptide)
peptide: Ac-[αAllylPro]D[tBuAla][B5(3)]DNAAFN[PyrS2″][3Thi][Bta]H-NH2
modifications: staple 1-4, 4-11
B9: in assay [3], the “NanoBRET Abs IC50” value was 23800 nM.

B10: I-144 (peptide)
peptide: Ac-[αAllylPro]DA[B5(4)]DEAAFV[S8]F[Bta]Q-NH2
modifications: staple 1-4, 4-11
notes: stapled peptide composition
Regarding B10, the EC50 in assay [1] turned out to be 146 nM; in assay [2], 66 nM.

B11: I-849 (peptide)
peptide: Ac-[αAllylPro]D[tBuAla][B5(3)]D[TfeGA]AAFL[PyrS2][3Thi][Bta]Q-NH2
modifications: staple 1-4, 4-11
For the molecule B11, the “NanoBRET Abs IC50” value in assay [3] was 3600 nM.

B12: I-173 (peptide)
peptide: XDAXDXAAFVXFWQ
modifications: not fully specified; as printed: Ac-PL3-Asp-Ala-B5-Asp-EtGA-Ala-Ala-Phe-Val-S8-Phe-Trp-Gln-NH2; N-terminal acetyl, C-terminal amide; PL3(1), B5(4), EtGA(6), S8(11); staples PL3-B5 and B5-S8 by olefin metathesis
notes: stapled peptide
In turn, B12 returned an EC50 in assay [1] of 3120 nM.

B13: I-175 (peptide)
peptide: Ac-[αAllylPro]DI[B5(5)]DDAAFQ[S8]FWH-NH2
modifications: staple 1-4, 4-11
notes: stapled peptide
As to B13, the half-maximal effective concentration (EC50) turned out to be 1760 nM in assay [1] and 116 nM in assay [2].

B14: I-143 (peptide)
peptide: Ac-[αAllylPro]DA[B5(4)]DEAAFV[S8]F[Qui]Q-NH2
modifications: staple 1-4, 4-11
notes: stapled peptide composition
Regarding B14, the results for the EC50 in assay [1] and in assay [2] were 2270 nM and 733 nM, respectively.

A word on the EC50: it is the concentration needed to bring the measured effect to its halfway point. A low value points to an effect from little substance.

Source of the values: patent US20240116985A1 (published 2024).
